Target: taxol-stabilized microtubules prepared from bovine brain tubulin, P81947
Sequence (P81947 whole entry, chain 1 of 2): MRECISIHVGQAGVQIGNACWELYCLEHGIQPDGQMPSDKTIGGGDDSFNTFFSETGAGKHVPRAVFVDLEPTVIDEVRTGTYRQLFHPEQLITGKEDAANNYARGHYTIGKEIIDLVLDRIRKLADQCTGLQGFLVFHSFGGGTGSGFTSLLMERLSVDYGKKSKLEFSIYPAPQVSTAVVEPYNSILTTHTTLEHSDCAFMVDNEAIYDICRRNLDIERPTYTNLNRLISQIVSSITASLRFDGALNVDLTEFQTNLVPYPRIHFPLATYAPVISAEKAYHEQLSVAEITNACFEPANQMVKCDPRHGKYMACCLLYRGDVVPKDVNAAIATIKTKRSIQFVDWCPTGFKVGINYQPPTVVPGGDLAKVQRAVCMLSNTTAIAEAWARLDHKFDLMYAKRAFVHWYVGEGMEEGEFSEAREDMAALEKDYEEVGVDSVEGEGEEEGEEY
Sequence (chain, as listed by the source, chain 2 of 2): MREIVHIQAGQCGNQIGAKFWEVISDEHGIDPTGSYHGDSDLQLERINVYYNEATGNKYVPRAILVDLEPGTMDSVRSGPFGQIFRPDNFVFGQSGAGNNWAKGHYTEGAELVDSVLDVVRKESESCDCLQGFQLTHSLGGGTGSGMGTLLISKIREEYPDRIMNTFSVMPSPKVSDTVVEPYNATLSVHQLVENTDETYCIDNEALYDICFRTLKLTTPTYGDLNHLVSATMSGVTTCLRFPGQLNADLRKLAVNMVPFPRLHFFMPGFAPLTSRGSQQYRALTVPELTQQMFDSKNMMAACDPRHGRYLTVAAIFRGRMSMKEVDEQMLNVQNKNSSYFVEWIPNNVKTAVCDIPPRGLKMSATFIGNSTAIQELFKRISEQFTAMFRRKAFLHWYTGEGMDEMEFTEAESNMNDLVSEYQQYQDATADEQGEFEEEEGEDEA

Protein | ATPase activity (ATP turnover), stimulation by microtubules | maximal microtubule-stimulated ATPase rate | microtubule concentration at peak ATPase stimulation | microtubule severing, fluorescence microscopy assay | microtubule-stimulated ATPase activity
baculovirus co-expressed S. purpuratus katanin p60/p80 heterodimer, each subunit with N-terminal His(6) tag (protein) chain 1: MSVDEICENTKMGREYALLGNYETSLVYYQGVLQQIQKLLTSVHEPQRKHQWQTIRQELSQEYEHVKNITKTLNGFKSEPAAPEPAPNHGRAAPFSHHQHAAKPAAAEPARDPDVWPPPTPVDHRPSPPYQRAARKDPPRRSEPSKPANRAPGNDRGGRGPSDRRGDARSGGGGRGGARGSDKDKNRGGKSDKDKKAPSGEEGDEKKFDPAGYDKDLVENLERDIVQRNPNVHWADIAGLTEAKRLLEEAVVLPLWMPDYFKGIRRPWKGVLMVGPPGTGKTMLAKAVATECGTTFFNVSSASLTSKYHGESEKLVRLLFEMARFYAPSTIFIDEIDSICSKRGTGSEHEASRRVKSELLIQMDGVSGPSAGEESSKMVMVLAATNFPWDIDEALRRRLEKRIYIPLPEIDGREQLLRINLKEVPLADDIDLKSIAEKMDGYSGADITNVCRDASMMAMRRRIQGLRPEEIRHIPKEELNQPSTPADFLLALQKVSKSVGKEDLVKYMAWMEEFGSV chain 2: MATKRAWKLQELVAHSSNVNCLALGPMSGRVMVTGGEDKKVNLWAVGKQNCIISLSGHTSPVDSVKFNSSEELVVAGSQSGTMKIYDLEPAKIVRTLTGHRNSIRCMDFHPFGEFVASGSTDTNVKLWDVRRKGCIYTYKGHSDQVNMIKFSPDGKWLVTASEDTTIKLWDLTMGKLFQEFKNHTGGVTGIEFHPNEFLLASGSSDRTVQFWDLETFQLVSSTSPGASAVRSISFHPDGSYLFCSSQDMLHAFGWEPIRCFDTFSVFWGKVADTVIASTQLIGASFNATNVSVYVADLSRMSTTGIAQEPQSQPSKTPSGGAEEVPSKPLTASGRKNFVRERPHTTSSKQRQPDVKSEPERQSPTQDEGVKDDDATDIKDPDSYAKIFSPKTRVDHSPERNAQPFPAPLDVPGAQEPEPFKHPPKPAAAAAVAPVSRAPAPSASDWQPAQANPAPNRVPAATKPVPAQEVAPSRKPDPISTIIPSDRNKPANLDMDAFLPPAHAQQAPRVNAPASRKQSDSERIEGLRKGHDSMCQVLSSRHRNLDVVRAIWTAGDAKTSVESVVNMKDQAILVDILNIMLLKKSLWNLDMCVVVLPRLKELLSSKYENYVHTSCACLKLILKNFTSLFNQNIKCPPSGIDITREERYNKCSKCYSYLIATRGYVEEKQHVSGKLGSSFRELHLLLDQLE | this activity was stimulated ~10-fold by microtubules | maximal microtubule-stimulated rate of 3 ATP/katanin/sec | peak at ~2 uM tubulin | Both p60 and p60/p80 severed microtubules in this assay | –
baculovirus-expressed S. purpuratus katanin p60 subunit with N-terminal His(6) tag (protein) MSVDEICENTKMGREYALLGNYETSLVYYQGVLQQIQKLLTSVHEPQRKHQWQTIRQELSQEYEHVKNITKTLNGFKSEPAAPEPAPNHGRAAPFSHHQHAAKPAAAEPARDPDVWPPPTPVDHRPSPPYQRAARKDPPRRSEPSKPANRAPGNDRGGRGPSDRRGDARSGGGGRGGARGSDKDKNRGGKSDKDKKAPSGEEGDEKKFDPAGYDKDLVENLERDIVQRNPNVHWADIAGLTEAKRLLEEAVVLPLWMPDYFKGIRRPWKGVLMVGPPGTGKTMLAKAVATECGTTFFNVSSASLTSKYHGESEKLVRLLFEMARFYAPSTIFIDEIDSICSKRGTGSEHEASRRVKSELLIQMDGVSGPSAGEESSKMVMVLAATNFPWDIDEALRRRLEKRIYIPLPEIDGREQLLRINLKEVPLADDIDLKSIAEKMDGYSGADITNVCRDASMMAMRRRIQGLRPEEIRHIPKEELNQPSTPADFLLALQKVSKSVGKEDLVKYMAWMEEFGSV | – | – | peak at ~2 uM tubulin | Both p60 and p60/p80 severed microtubules in this assay | p60 alone displayed a microtubule-stimulated ATPase activity
